Measurements taken from patent publication US10239925B2, “Peptides and combination of peptides for use in immunotherapy against ovarian cancer and other cancers” (IMMATICS BIOTECHNOLOGIES GMBH, priority 2015, dated 2019).

What follows are substances tested against HLA-A*02:01 (Homo sapiens, UniProt P04439, D140Y/D185E/D98H/E176V/E277Q/G131W/G231S/I119V/I121R/I166T/I218V/L300P/L318F/N151K/N90K/P208A/P217A/Q86G/Q94H/R138H/R169H/T345S) (assay: MHC binding assay (UV-ligand exchange, anti-β2m ELISA, peptide exchange yield)). Details: binding to HLA-A*02:01.
Procedure, shortened: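 Peptide-MHC complexes formed by UV-ligand exchange, cleaving a UV-sensitive placeholder peptide in favour of the test peptide. Exchange yield measured by ELISA: monomers diluted 100-fold onto streptavidin-coated plates, 1 h 37 °C, detected with 2 ug/ml HRP anti-β2m and TMB, absorbance at 450 nm.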

Peptide exchange (MHC class I binding score, peptide exchange yield)	Substance
“+++” (>50 = +++)	361 (ALYELEGTTV; listed as Homo sapiens) [compound 361]
“+++” (>50 = +++)	362 (TLYGLSVLL; listed as Homo sapiens) [compound 362]
“++” (>20% = ++)	363 (KVLDVSDLESV; listed as Homo sapiens) [compound 363]
“+++” (>50 = +++)	364 (LLQNEQFEL; listed as Homo sapiens) [compound 364]
“+++” (>50 = +++)	365 (YVIDQGETDVYV; listed as Homo sapiens) [compound 365]
“+++” (>50 = +++)	366 (RLLDMGETDLML; listed as Homo sapiens) [compound 366]
“+++” (>50 = +++)	367 (SLQNHNHQL; listed as Homo sapiens) [compound 367]
“+++” (>50 = +++)	369 (GLFPEHLIDV; listed as Homo sapiens) [compound 369]
“+++” (>50 = +++)	370 (SLLQDLVSV; listed as Homo sapiens) [compound 370]
“++++” (>75% = ++++)	371 (FLQAHLHTA; listed as Homo sapiens) [compound 371]
“++” (>20% = ++)	372 (TMLLNIPLV; listed as Homo sapiens) [compound 372]
“++” (>20% = ++)	373 (SLLEDKGLAEV; listed as Homo sapiens) [compound 373]
“++” (>20% = ++)	374 (FLLQQHLISA; listed as Homo sapiens) [compound 374]
“++” (>20% = ++)	375 (SLTETIEGV; listed as Homo sapiens) [compound 375]
“++” (>20% = ++)	376 (AMFESSQNVLL; listed as Homo sapiens) [compound 376]
“++” (>20% = ++)	377 (FLLDSSASV; listed as Homo sapiens) [compound 377]
“+++” (>50 = +++)	378 (ALGYFVPYV; listed as Homo sapiens) [compound 378]
“++” (>20% = ++)	379 (IMEGTLTRV; listed as Homo sapiens) [compound 379]
“++” (>20% = ++)	380 (TLIEDEIATI; listed as Homo sapiens) [compound 380]
“++” (>20% = ++)	381 (FIDEAYVEV; listed as Homo sapiens) [compound 381]
“++” (>20% = ++)	382 (ALQNYIKEA; listed as Homo sapiens) [compound 382]
“+++” (>50 = +++)	383 (ALLELENSVTL; listed as Homo sapiens) [compound 383]
“++” (>20% = ++)	385 (SLLEQGLVEA; listed as Homo sapiens) [compound 385]

Peptide exchange (MHC class I binding score, peptide exchange yield)	Substance
“+++” (>50 = +++)	386 (ILFRYPLTI; listed as Homo sapiens) [compound 386]
“++++” (>75% = ++++)	387 (ALFQATAEV; listed as Homo sapiens) [compound 387]
“+++” (>50 = +++)	388 (SLTIDGIRYV; listed as Homo sapiens) [compound 388]
“++” (>20% = ++)	389 (LLADVTHLL; listed as Homo sapiens) [compound 389]
“+++” (>50 = +++)	390 (ALFMKQIYL; listed as Homo sapiens) [compound 390]
“+++” (>50 = +++)	391 (YVYPQRLNFV; listed as Homo sapiens) [compound 391]
“++” (>20% = ++)	392 (ALLHPQGFEV; listed as Homo sapiens) [compound 392]
“++” (>20% = ++)	393 (GLLDTQTSQVLTA; listed as Homo sapiens) [compound 393]
“+++” (>50 = +++)	394 (LLAVIGGLVYL; listed as Homo sapiens) [compound 394]
“+++” (>50 = +++)	396 (ALLPDLPAL; listed as Homo sapiens) [compound 396]
“+++” (>50 = +++)	397 (YLFGERLLEC; listed as Homo sapiens) [compound 397]
“++” (>20% = ++)	398 (KLLEEDGTIITL; listed as Homo sapiens) [compound 398]
“+++” (>50 = +++)	399 (YLFEPLYHV; listed as Homo sapiens) [compound 399]
“++” (>20% = ++)	400 (SLLTEQDLWTV; listed as Homo sapiens) [compound 400]
“+++” (>50 = +++)	401 (ILLDDTGLAYI; listed as Homo sapiens) [compound 401]
“++” (>20% = ++)	402 (VLFSGALLGL; listed as Homo sapiens) [compound 402]
“++” (>20% = ++)	403 (KLYDRILRV; listed as Homo sapiens) [compound 403]
“++” (>20% = ++)	405 (ALYDVFLEV; listed as Homo sapiens) [compound 405]
“+++” (>50 = +++)	407 (YLMDLINFL; listed as Homo sapiens) [compound 407]
“++” (>20% = ++)	408 (VLDDSIYLV; listed as Homo sapiens) [compound 408]
“++” (>20% = ++)	409 (LLDAMNYHL; listed as Homo sapiens) [compound 409]
“++” (>20% = ++)	412 (YLDDLNEGVYI; listed as Homo sapiens) [compound 412]
“+++” (>50 = +++)	426 (RLADKSVLV; listed as Homo sapiens) [compound 426]

Peptide exchange (MHC class I binding score, peptide exchange yield)	Substance
“+++” (>50 = +++)	427 (ALLPLSPYL; listed as Homo sapiens) [compound 427]
“++” (>20% = ++)	428 (KLGHTDILVGV; listed as Homo sapiens) [compound 428]
“++” (>20% = ++)	429 (GLVNDLARV; listed as Homo sapiens) [compound 429]
“+++” (>50 = +++)	430 (HLYSSIEHLTT; listed as Homo sapiens) [compound 430]
“++” (>20% = ++)	431 (SLVNVVPKL; listed as Homo sapiens) [compound 431]
“++” (>20% = ++)	432 (TLIEESAKV; listed as Homo sapiens) [compound 432]
“+++” (>50 = +++)	433 (AMLNEPWAV; listed as Homo sapiens) [compound 433]
“++” (>20% = ++)	434 (KVSNSGITRV; listed as Homo sapiens) [compound 434]
“+++” (>50 = +++)	436 (HLAEVSAEV; listed as Homo sapiens) [compound 436]
“+++” (>50 = +++)	437 (SMAPGLVIQAV; listed as Homo sapiens) [compound 437]
“++++” (>75% = ++++)	438 (KLLPLAGLYL; listed as Homo sapiens) [compound 438]
“+++” (>50 = +++)	439 (YLLQEIYGI; listed as Homo sapiens) [compound 439]
“++” (>20% = ++)	440 (ALADGVTMQV; listed as Homo sapiens) [compound 440]
“+++” (>50 = +++)	441 (ALLENPKMEL; listed as Homo sapiens) [compound 441]
“+++” (>50 = +++)	442 (GLLGGGGVLGV; listed as Homo sapiens) [compound 442]
“+++” (>50 = +++)	444 (GLLRDEALAEV; listed as Homo sapiens) [compound 444]
“++” (>20% = ++)	447 (QLVPALAKV; listed as Homo sapiens) [compound 447]
“+++” (>50 = +++)	448 (NLLETKLQL; listed as Homo sapiens) [compound 448]
“+++” (>50 = +++)	449 (KLAEGLDIQL; listed as Homo sapiens) [compound 449]
“+++” (>50 = +++)	450 (FMIDASVHPTL; listed as Homo sapiens) [compound 450]
“++” (>20% = ++)	451 (LLLLDTVTMQV; listed as Homo sapiens) [compound 451]
